Data published in patent US20140087995A1 (published 2014).
Numbered stars: 1 amine (or outer) side, 2 acyl side, 3 side chain; on linkers, the order of the positions; unused ones are H or OH. Bridge positions count the residues as written; N and C are the ends. Side chains are listed from the residue outwards. Ends that are not written are not given here. * marks the point of attachment. C20 diacid = O=C(O)CCCCCCCCCCCCCCCCCCC(=O)*; γGlu = O=C(O)[C@H](CCC(=O)[*:2])N[*:1]

How the values were obtained:
[1] = biological target: T1, human calcitonin receptor (human, UniProt P30988 25-474); assay: SPA competition against 125I-calcitonin, membranes of BHK cells with human calcitonin receptor (Assay VII)
T1 construct: whole, on cells; also called hCTR; hCT
T1 sequence (looked up): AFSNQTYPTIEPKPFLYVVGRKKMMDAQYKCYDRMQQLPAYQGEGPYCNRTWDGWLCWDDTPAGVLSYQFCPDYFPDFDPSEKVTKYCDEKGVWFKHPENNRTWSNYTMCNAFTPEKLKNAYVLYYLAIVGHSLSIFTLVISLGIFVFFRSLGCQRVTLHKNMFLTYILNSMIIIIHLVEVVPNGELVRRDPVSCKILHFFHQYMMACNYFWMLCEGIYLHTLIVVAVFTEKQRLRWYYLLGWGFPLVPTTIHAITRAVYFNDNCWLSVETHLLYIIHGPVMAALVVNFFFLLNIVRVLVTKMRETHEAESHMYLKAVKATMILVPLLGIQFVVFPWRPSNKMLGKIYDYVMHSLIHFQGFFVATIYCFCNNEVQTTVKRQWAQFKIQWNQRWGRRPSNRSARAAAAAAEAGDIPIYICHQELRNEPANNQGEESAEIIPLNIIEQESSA
Outline: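 BHK hCTR membranes 35 ng/μL + SPA beads 0.05 mg/well; buffer 50 mM Hepes pH 7.4, 1 mM CaCl2, 5 mM MgCl₂, 0.1% OA, 0.02% Tween20. 120 min, 25° C., shaking. Scintillation count; IC50 by one-site binding competition.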

[2] = biological target: T1, human calcitonin receptor; assay: ratio of IC50 at human calcitonin receptor to IC50 at human amylin receptor (SPA competition assays)
Outline: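 Competition binding by SPA uses membrane preparations (35 ng/μL final) in pH 7.4 Hepes buffer with 1 mM CaCl2 and 5 mM MgCl₂. Incubation lasts 120 min at 25° C, and IC₅₀ comes from one-site fitting.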

| Binder | IC50 [1] | Ratio hCT/hAmylin binding [2] |
| --- | --- | --- |
| K([γGlu-C20 diacid])CNTATCATQRLAEFLRHSSPNFGAIPSSTNVGSHTY-NH2 (disulfide 2-7; N-terminus assumed; SMILES CC[C@H](C)[C@H](NC(=O)[C@H](C)NC(=O)CNC(=O)[C@H](Cc1ccccc1)NC(=O)[C@H](CC(N)=O)NC(=O)[C@@H]1CCCN1C(=O)[C@H](CO)NC(=O)[C@H](CO)NC(=O)[C@H](Cc1c[nH]cn1)NC(=O)[C@H](CCCNC(=N)N)NC(=O)[C@H](CC(C)C)NC(=O)[C@H](Cc1ccccc1)NC(=O)[C@H](CCC(=O)O)NC(=O)[C@H](C)NC(=O)[C@H](CC(C)C)NC(=O)[C@H](CCCNC(=N)N)NC(=O)[C@H](CCC(N)=O)NC(=O)[C@@H](NC(=O)[C@H](C)NC(=O)[C@@H]1CSSC[C@H](NC(=O)[C@@H](N)CCCCNC(=O)CC[C@H](NC(=O)CCCCCCCCCCCCCCCCCCC(=O)O)C(=O)O)C(=O)N[C@@H](CC(N)=O)C(=O)N[C@@H]([C@@H](C)O)C(=O)N[C@@H](C)C(=O)N[C@@H]([C@@H](C)O)C(=O)N1)[C@@H](C)O)C(=O)N1CCC[C@H]1C(=O)N[C@@H](CO)C(=O)N[C@@H](CO)C(=O)N[C@H](C(=O)N[C@@H](CC(N)=O)C(=O)N[C@H](C(=O)NCC(=O)N[C@@H](CO)C(=O)N[C@@H](Cc1c[nH]cn1)C(=O)N[C@H](C(=O)N[C@@H](Cc1ccc(O)cc1)C(N)=O)[C@@H](C)O)C(C)C)[C@@H](C)O) | 26.1 nM | 26.4 |
| K([γGlu-C20 diacid])CNTATCATQRLAHFLRHSSPNFGAIPSSTPVGPNTY-NH2 (disulfide 2-7; N-terminus assumed; SMILES CC[C@H](C)[C@H](NC(=O)[C@H](C)NC(=O)CNC(=O)[C@H](Cc1ccccc1)NC(=O)[C@H](CC(N)=O)NC(=O)[C@@H]1CCCN1C(=O)[C@H](CO)NC(=O)[C@H](CO)NC(=O)[C@H](Cc1c[nH]cn1)NC(=O)[C@H](CCCNC(=N)N)NC(=O)[C@H](CC(C)C)NC(=O)[C@H](Cc1ccccc1)NC(=O)[C@H](Cc1c[nH]cn1)NC(=O)[C@H](C)NC(=O)[C@H](CC(C)C)NC(=O)[C@H](CCCNC(=N)N)NC(=O)[C@H](CCC(N)=O)NC(=O)[C@@H](NC(=O)[C@H](C)NC(=O)[C@@H]1CSSC[C@H](NC(=O)[C@@H](N)CCCCNC(=O)CC[C@H](NC(=O)CCCCCCCCCCCCCCCCCCC(=O)O)C(=O)O)C(=O)N[C@@H](CC(N)=O)C(=O)N[C@@H]([C@@H](C)O)C(=O)N[C@@H](C)C(=O)N[C@@H]([C@@H](C)O)C(=O)N1)[C@@H](C)O)C(=O)N1CCC[C@H]1C(=O)N[C@@H](CO)C(=O)N[C@@H](CO)C(=O)N[C@H](C(=O)N1CCC[C@H]1C(=O)N[C@H](C(=O)NCC(=O)N1CCC[C@H]1C(=O)N[C@@H](CC(N)=O)C(=O)N[C@H](C(=O)N[C@@H](Cc1ccc(O)cc1)C(N)=O)[C@@H](C)O)C(C)C)[C@@H](C)O) | 2.04 nM | 24.8 |
| K([γGlu-C20 diacid])CNTATCATQRLAEFLRHSSPNFGAIPSSTNVGPHTY-NH2 (disulfide 2-7) | 3.8 nM | 21.2 |
| K([γGlu-γGlu-C20 diacid])CNTATCATQRLADFLRHSSPNFGAIPSSTNVGPRTY-NH2 (disulfide 2-7; N-terminus assumed; SMILES CC[C@H](C)[C@H](NC(=O)[C@H](C)NC(=O)CNC(=O)[C@H](Cc1ccccc1)NC(=O)[C@H](CC(N)=O)NC(=O)[C@@H]1CCCN1C(=O)[C@H](CO)NC(=O)[C@H](CO)NC(=O)[C@H](Cc1c[nH]cn1)NC(=O)[C@H](CCCNC(=N)N)NC(=O)[C@H](CC(C)C)NC(=O)[C@H](Cc1ccccc1)NC(=O)[C@H](CC(=O)O)NC(=O)[C@H](C)NC(=O)[C@H](CC(C)C)NC(=O)[C@H](CCCNC(=N)N)NC(=O)[C@H](CCC(N)=O)NC(=O)[C@@H](NC(=O)[C@H](C)NC(=O)[C@@H]1CSSC[C@H](NC(=O)[C@@H](N)CCCCNC(=O)CC[C@H](NC(=O)CC[C@H](NC(=O)CCCCCCCCCCCCCCCCCCC(=O)O)C(=O)O)C(=O)O)C(=O)N[C@@H](CC(N)=O)C(=O)N[C@@H]([C@@H](C)O)C(=O)N[C@@H](C)C(=O)N[C@@H]([C@@H](C)O)C(=O)N1)[C@@H](C)O)C(=O)N1CCC[C@H]1C(=O)N[C@@H](CO)C(=O)N[C@@H](CO)C(=O)N[C@H](C(=O)N[C@@H](CC(N)=O)C(=O)N[C@H](C(=O)NCC(=O)N1CCC[C@H]1C(=O)N[C@@H](CCCNC(=N)N)C(=O)N[C@H](C(=O)N[C@@H](Cc1ccc(O)cc1)C(N)=O)[C@@H](C)O)C(C)C)[C@@H](C)O, also called compound 130) | 127 nM | 280 |
| K([γGlu-γGlu-C20 diacid])CNTATCATQRLADFLRHSSPNFGAIPSSTNVGPETY-NH2 (disulfide 2-7) | 8.56 nM | 49.8 |
| K([γGlu-γGlu-C20 diacid])CNTATCATQRLAEFLRHSSPNFGAIPSSTNVGPHTY-NH2 (disulfide 2-7 (inferred)) | 10.3 nM | 27.3 |
| K([γGlu-γGlu-C20 diacid])CNTATCATQRLANFLRHSSPNFGAIPSSTPVGPRTY-NH2 (disulfide 2-7; N-terminus assumed; SMILES CC[C@H](C)[C@H](NC(=O)[C@H](C)NC(=O)CNC(=O)[C@H](Cc1ccccc1)NC(=O)[C@H](CC(N)=O)NC(=O)[C@@H]1CCCN1C(=O)[C@H](CO)NC(=O)[C@H](CO)NC(=O)[C@H](Cc1c[nH]cn1)NC(=O)[C@H](CCCNC(=N)N)NC(=O)[C@H](CC(C)C)NC(=O)[C@H](Cc1ccccc1)NC(=O)[C@H](CC(N)=O)NC(=O)[C@H](C)NC(=O)[C@H](CC(C)C)NC(=O)[C@H](CCCNC(=N)N)NC(=O)[C@H](CCC(N)=O)NC(=O)[C@@H](NC(=O)[C@H](C)NC(=O)[C@@H]1CSSC[C@H](NC(=O)[C@@H](N)CCCCNC(=O)CC[C@H](NC(=O)CC[C@H](NC(=O)CCCCCCCCCCCCCCCCCCC(=O)O)C(=O)O)C(=O)O)C(=O)N[C@@H](CC(N)=O)C(=O)N[C@@H]([C@@H](C)O)C(=O)N[C@@H](C)C(=O)N[C@@H]([C@@H](C)O)C(=O)N1)[C@@H](C)O)C(=O)N1CCC[C@H]1C(=O)N[C@@H](CO)C(=O)N[C@@H](CO)C(=O)N[C@H](C(=O)N1CCC[C@H]1C(=O)N[C@H](C(=O)NCC(=O)N1CCC[C@H]1C(=O)N[C@@H](CCCNC(=N)N)C(=O)N[C@H](C(=O)N[C@@H](Cc1ccc(O)cc1)C(N)=O)[C@@H](C)O)C(C)C)[C@@H](C)O) | 42.8 nM | 48.6 |
